According to US8729012, “Controllable assembly and disassembly of nanoparticle systems via protein and DNA agents” (Brookhaven Science Associates, LLC):

What was measured:
gene 5 protein (g5p) [1] = biological target: T1, gene 5 protein (g5p) (bacteriophage M13, UniProt P69544 P69544:1-87); experiment: EMSA; three sequential stages: anti-parallel ssDNA region shifted at 10 uM g5p, then ssDNA tail, then dsDNA over 35 uM; 1 uM DNA, 10 mM Tris-HCl pH 7.4, 200 mM NaCl; conditions: tags: His-tag (pET-30b, expressed in E. coli BL21-DE3; gene from NEB M13); chain copies: 2 inferred (homodimer); 19 bp duplex, two anti-parallel T32 single strands, 3' ssDNA tail of 15 nt
T1 sequence: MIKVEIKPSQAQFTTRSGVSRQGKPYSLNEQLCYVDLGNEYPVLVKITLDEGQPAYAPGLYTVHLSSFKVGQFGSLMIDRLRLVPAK
Protocol: To study the distinct binding properties of g5p and its preferential DNA topology, an exemplary DNA structure with three distinct regions has been designed: a 19 base paired double-stranded DNA (dsDNA) region, followed by a 32 nucleotide anti-parallel poly-T ssDNA region, and a 3' extended ssDNA tail of 15 nucleotides. The DNA structure ([…]) was titrated with g5p (in 10 mM Tris-HCl, pH=7.4, 200 mM NaCl), and g5p binding was studied using the electrophoretic mobility shift assay. […] Since g5p has a much lower affinity to dsDNA than to ssDNA at high salt concentration, the following order of occupancy is hypothesized: binding to the anti-parallel ssDNA region with a large shift of the DNA band at 10 μM g5p, followed by binding to the ssDNA tail, and finally to dsDNA at g5p concentrations over 35 μM. Thus, g5p binds to ssDNA regions before it binds to the dsDNA region, and its binding affinity for the anti-parallel region is slightly higher than for the ssDNA tail. […] By comparing the intensity of the band in the presence of 30 μM g5p to the band under control conditions without g5p, the hybridization efficiency for C-ssDNA to the g5p-complexed ssDNA tail was determined to be approximately 82%, indicating effective DNA hybridization without significant inhibition by g5p. […]

gene 5 protein (g5p) [2] = biological target: T1, gene 5 protein (g5p); experiment: EMSA; C-ssDNA added to the complex; 20 and 30 uM g5p shifts collapse to one band of higher mobility (anti-parallel region bound); tail hybridization about 82% at 30 uM g5p; conditions: tags: His-tag (pET-30b, expressed in E. coli BL21-DE3; gene from NEB M13); chain copies: 2 inferred (homodimer); 19 bp duplex, anti-parallel T32 strands, tail hybridized as 15 bp duplex
Protocol: Since g5p has a much lower affinity to dsDNA than to ssDNA at high salt concentration, the following order of occupancy is hypothesized: binding to the anti-parallel ssDNA region with a large shift of the DNA band at 10 μM g5p, followed by binding to the ssDNA tail, and finally to dsDNA at g5p concentrations over 35 μM. Thus, g5p binds to ssDNA regions before it binds to the dsDNA region, and its binding affinity for the anti-parallel region is slightly higher than for the ssDNA tail. To study the effect of g5p association on forming dsDNA heteroduplexes, and confirm the proposed binding order to the ssDNA regions, an equal amount (1 μM) of C-ssDNA that can hybridize to the ssDNA tail was added. […] Smearing of the band after C-ssDNA addition at 45 μM g5p supports g5p binding to dsDNA at this concentration. […]
(§1) The DNA for the binding study was obtained by annealing of two ssDNA with sequences, 5'-GACCACATACCGCAC-CATC(T)$32$CTGCTACGAGACTTC-3' (SEQ ID NO. 7) and 5'-(T)$32$GATGGTGCGGTATGTGGTC-3' (SEQ ID NO. 8), respectively. […] Relative intensities of the DNA bands were analyzed after ethidium bromide staining Characterization UV-Visible spectra were obtained using a PerkinElmer Lambda 35 spectrometer. DLS was measured using a Malvern Zetasizer ZS instrument that is equipped with a 633 nm laser and a backscattering detector at 173°.

YieF = biological target: T2, YieF (UniProt P0AGE6 P0AGE6:1-188); experiment: negative control, no aggregation by DLS (2.5 uM) or UV-vis (15 uM); conditions: tags: polyhistidine
T2 sequence: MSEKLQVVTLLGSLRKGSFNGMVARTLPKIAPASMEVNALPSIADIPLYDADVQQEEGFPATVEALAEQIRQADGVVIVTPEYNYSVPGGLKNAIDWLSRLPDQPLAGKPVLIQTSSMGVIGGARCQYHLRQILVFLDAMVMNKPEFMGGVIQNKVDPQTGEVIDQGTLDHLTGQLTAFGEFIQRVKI
Protocol: (§2) The SP band is associated with isolated Au and assembled nanostructures. After adding increased g5p concentrations, the SP band at 525 nm of isolated ssDNA-Au was red-shifted with band broadening, indicative of either a decrease in interparticle distances or an increase of aggregate size (FIG. 7B). The higher extinction intensity observed over 10 μM g5p is due to a […] of the solution's turbidity resulting from the formation of larger aggregates. […] The sizes and morphologies of the g5p-mediated ssDNA-Au assemblies were studied using transmission electron microscopy (TEM) (FIG. 7C). […] Polyhistidine-tagged YieF protein (MW=20 KDa) was used as a negative control, for which no aggregation of particles was observed during DLS and UV-vis studies (FIGS. 8A and 8B).
as §1, with “respectively. The annealed DNA (1 µM) was incubated with g5p at 37° C. for 10 minutes.” for “respectively.”, “173°. […]” for “173°.”

gene 5 protein (g5p) [3] = biological target: T1, gene 5 protein (g5p); experiment: g5p-dependent nanoparticle assembly by DLS, UV-vis, TEM; 10 mM Tris-HCl pH 7.44, 200 mM NaCl; conditions: tags: His-tag (pET-30b, expressed in E. coli BL21-DE3; gene from NEB M13); chain copies: 2 inferred (homodimer)
Protocol: as §2
as §1, with “respectively. The annealed DNA (1 µM) was incubated with g5p at 37° C. for 10 minutes.” for “respectively.”, “173°. […]” for “173°.”

B1: annealed 19 bp dsDNA / anti-parallel poly-T32 / 15 nt ssDNA tail (structured_DNA)
DNA 1: GACCACATACCGCACCATCTTTTTTTTTTTTTTTTTTTTTTTTTTTTTTTTCTGCTACGAGACTTC
DNA 2: TTTTTTTTTTTTTTTTTTTTTTTTTTTTTTTTGATGGTGCGGTATGTGGTC
binding result (gene 5 protein (g5p) [1]): binds

B2: annealed DNA with tail hybridized to C-ssDNA (structured_DNA)
DNA 1: GACCACATACCGCACCATCTTTTTTTTTTTTTTTTTTTTTTTTTTTTTTTTCTGCTACGAGACTTC
DNA 2: TTTTTTTTTTTTTTTTTTTTTTTTTTTTTTTTGATGGTGCGGTATGTGGTC
DNA 3: GAAGTCTCGTAGCAG
binding result (gene 5 protein (g5p) [2]): binds

TTTTTTTTTTTTTTTTAACCTAACCTTCAT (ssDNA, 5'-HS-C3H6, about 50 copies per gold nanoparticle) [ssDNA on gold nanoparticles (ssDNA-Au)]
binding result (YieF): no binding | binding result (gene 5 protein (g5p) [3]): binds
